Data on two variants can be found in PMC4889959 (Nucleic Acids Research, 2016).

The labels stand for the following.
B1: SLX4BTB wild type, yeast two-hybrid fusion [human] / SLX4BTB wild type, yeast two-hybrid fusion [human] (parent)
chain 1: QDKHPDRGGRTLLSLGLLVADFGAMVNNPHLSDVQFQTDSGEVLYAHKFVLYARCPLLIQYVNNEGFSAVEDGVLTQRVLLGDVSTEAARTFLHYLYTADTGLPPGLSSELSSLAHRFGVSELVHLCEQVPIATDS
chain 2: B1 chain 1

The variants in the first assay derive from B1. The assay can be described thus: yeast two-hybrid β-galactosidase assay. To be noted: with SLX4BTB wild type, ONPG as substrate, SLX4BTB-F681R-F708R-AD + SLX4BTB-BD, parent: 710, read off a plot.
Regarding chain 1 QDKHPDRGGRTLLSLGLLVADRGAMVNNPHLSDVQFQTDSGEVLYAHKRVLYARCPLLIQYVNNEGFSAVEDGVLTQRVLLGDVSTEAARTFLHYLYTADTGLPPGLSSELSSLAHRFGVSELVHLCEQVPIATDS [chain 1 F22R F49R], the response (OD420 reading) came to 5.

Still in this assay, the particulars now being: with SLX4BTB wild type, ONPG as substrate, SLX4BTB-F708R-AD + SLX4BTB-BD, parent: 710, read off a plot.
For the variant chain 1 QDKHPDRGGRTLLSLGLLVADFGAMVNNPHLSDVQFQTDSGEVLYAHKRVLYARCPLLIQYVNNEGFSAVEDGVLTQRVLLGDVSTEAARTFLHYLYTADTGLPPGLSSELSSLAHRFGVSELVHLCEQVPIATDS [chain 1 F49R], the response (OD420 reading) was 5.5.
